Source: article PMC12463560

Target: PEDV-S1 protein fused with an Fc region (PEDV-S1-Fc protein) (porcine epidemic diarrhea virus | human)
Test: SDS-PAGE under reducing and non-reducing conditions; purified proteins loaded with (+) or without (-) beta-mercaptoethanol, Coomassie stained; shows disulfide-linked dimers only

With “PEDV-S1 protein fused with an Fc region (PEDV-S1-Fc protein) (Fc fusion)” as the substance, how does the stoichiometry N read?
The stoichiometry N was 2.
